According to the supplement of paper PMC9112550, “Optimization of the antimicrobial peptide Bac7 by deep mutational scanning” (BMC Biology, 2022):

system: Escherichia coli TOP10; assay: shrunken log2 fold change of peptide-encoding DNA abundance (4.5 h post-induction vs induction); higher = less antimicrobial activity (less host growth inhibition); conditions: time post-induction: 4.5 h; library: site-saturation at positions 5, 18, 19, 20
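Note: peptides expressed intracellularly from a pBAD plasmid library in pooled LB shake-flask culture, induced with 0.3% L-arabinose, DNA abundance read by NGS, three biological replicates, DESeq2 with apeglm shrinkage.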

Sequence	shrunken log2 fold change
RRIRMRPPRLPRPRPRPTENPRP	0.772
RRIRLRPPRLPRPRPRPCMEPRP	0.115
RRIRHRPPRLPRPRPRPHSSPRP	-0.0394
RRIRERPPRLPRPRPRPFFSPRP	-0.358
RRIRHRPPRLPRPRPRPHTVPRP	-0.606
RRIRSRPPRLPRPRPRPTENPRP	0.148
RRIRGRPPRLPRPRPRPEQRPRP	0.926
RRIRGRPPRLPRPRPRPPGGPRP	1.18
RRIRYRPPRLPRPRPRPHTSPRP	-1.04
RRIRRRPPRLPRPRPRPWMWPRP	0.0918
RRIRTRPPRLPRPRPRPLWRPRP	0.00366
RRIRPRPPRLPRPRPRPNCYPRP	-0.344
RRIRCRPPRLPRPRPRPKETPRP	-0.0766
RRIRQRPPRLPRPRPRPWEAPRP	-0.00204
RRIRVRPPRLPRPRPRPQDNPRP	-1.05
RRIRARPPRLPRPRPRPNGVPRP	-0.00122
RRIRNRPPRLPRPRPRPFILPRP	-0.634
RRIRDRPPRLPRPRPRPMKIPRP	-0.0804
RRIRKRPPRLPRPRPRPTDPPRP	0.0238
RRIRSRPPRLPRPRPRPCINPRP	-0.5
RRIRCRPPRLPRPRPRPATRPRP	0.366
RRIRCRPPRLPRPRPRPQPLPRP	0.19
RRIRMRPPRLPRPRPRPDKIPRP	0.179
RRIRERPPRLPRPRPRPGDHPRP	-0.0518
RRIRNRPPRLPRPRPRPDDNPRP	-0.0156

Sequence	shrunken log2 fold change
RRIRQRPPRLPRPRPRPVIEPRP	0.162
RRIRSRPPRLPRPRPRPYAFPRP	-0.487
RRIRSRPPRLPRPRPRPLMGPRP	-0.271
RRIRQRPPRLPRPRPRPQFLPRP	-0.359
RRIRTRPPRLPRPRPRPWPHPRP	-0.091
RRIRERPPRLPRPRPRPTEIPRP	0.135
RRIRERPPRLPRPRPRPKGWPRP	0.493
RRIRRRPPRLPRPRPRPYEFPRP	-0.187
RRIRVRPPRLPRPRPRPGWYPRP	0.0128
RRIRCRPPRLPRPRPRPLPSPRP	0.214
RRIRHRPPRLPRPRPRPNNTPRP	-0.931
RRIRMRPPRLPRPRPRPLSIPRP	-0.0206
RRIRIRPPRLPRPRPRPRKFPRP	-0.000367
RRIRDRPPRLPRPRPRPFALPRP	0.206
RRIRIRPPRLPRPRPRPNWGPRP	-0.205
RRIRRRPPRLPRPRPRPAHTPRP	0.448
RRIRWRPPRLPRPRPRPCQHPRP	-0.116
RRIRTRPPRLPRPRPRPEWAPRP	0.213
RRIRPRPPRLPRPRPRPICYPRP	-0.407
RRIRQRPPRLPRPRPRPQIVPRP	-0.026
RRIRDRPPRLPRPRPRPSHLPRP	-0.248
RRIRMRPPRLPRPRPRPVESPRP	0.00581
RRIRSRPPRLPRPRPRPQFEPRP	0.189
RRIRARPPRLPRPRPRPAYPPRP	0.106
RRIRSRPPRLPRPRPRPAMKPRP	0.00274

Sequence	shrunken log2 fold change
RRIRERPPRLPRPRPRPMLMPRP	-0.142
RRIRKRPPRLPRPRPRPDDAPRP	1.47
RRIRFRPPRLPRPRPRPKKEPRP	0.0316
RRIRNRPPRLPRPRPRPASQPRP	0.545
RRIRQRPPRLPRPRPRPRNCPRP	5
RRIRQRPPRLPRPRPRPRNYPRP	0.034
RRIRFRPPRLPRPRPRPFHTPRP	-0.561
RRIRPRPPRLPRPRPRPVTEPRP	-0.027
RRIRYRPPRLPRPRPRPGEQPRP	0.0237
RRIRNRPPRLPRPRPRPCRRPRP	-0.103
RRIRWRPPRLPRPRPRPDFRPRP	0.169
RRIRMRPPRLPRPRPRPKQNPRP	1.16
RRIRHRPPRLPRPRPRPEDPPRP	0.0512
RRIRERPPRLPRPRPRPAHGPRP	0.131
RRIRQRPPRLPRPRPRPIWLPRP	0.66
RRIRPRPPRLPRPRPRPCSMPRP	-0.564
RRIRGRPPRLPRPRPRPYLTPRP	-0.0518
RRIRPRPPRLPRPRPRPENEPRP	0.0949
RRIRQRPPRLPRPRPRPERTPRP	0.124
RRIRKRPPRLPRPRPRPDCFPRP	0.315
RRIRVRPPRLPRPRPRPNHHPRP	-0.373
RRIRIRPPRLPRPRPRPQGMPRP	-0.501
RRIRPRPPRLPRPRPRPRGHPRP	0.0129
RRIRDRPPRLPRPRPRPPCAPRP	0.371
RRIRFRPPRLPRPRPRPAFQPRP	0.243
